From patent US20260224723A1, “ANTI-B7H3 ANTIBODY-DRUG CONJUGATE AND USE THEREOF” (Duality Biologics (Suzhou) Co., Ltd., priority 2022, published 2026)

Experiments:
[1] = molecular target: Human full-length B7H3 on MCF-7 cells (human) (UniProt Q5ZPR3); assay: cell-based or functional assay
[2] = molecular target: Cynomolgus monkey full-length B7H3 on transfected FlpinCHO cells (cynomolgus monkey); assay: FACS on cynomolgus monkey B7H3-transfected FlpinCHO cell pool; negative control
[3] = molecular target: Human full-length B7H3 on MCF-7 cells (human) (UniProt Q5ZPR3); assay: FACS on MCF-7 cells, Alexa 647 anti-human secondary

Substance	Antibody internalization Maximum MFI [1] [MFI]	Maximum MFI [2] [MFI]	EC50 [3] [nM]	Maximum MFI [3] [MFI]	Antibody internalization EC50 [1] [nM]
hIgG1 isotype (antibody)	21	6.67			
Enoblituzumab (MacroGenics) (antibody)	39800		2.49	4640	1.95
